Our source for the abundance fitness values is the Human Domainome abundance scans (Beltran et al. 2025).

B1: Tripartite motif-containing protein 49C, residues 87 to 133; numbered along this chain, P0CI26 (parent)
chain: SSEEQMCGTHRETKKIFCEVDRSLLCLLCSSSQEHRYHRHRPIEWAA

± gives the uncertainty stated by the source.

This data set covers variants of B1. Nature of the data set: abundance fitness (aPCA) (normalised: wild type 0, dead -1); higher = more abundant; growth selection in yeast, the domain comes from the species named. To be noted: Homo sapiens.
Take SSEENMCGTHRETKKIFCEVDRSLLCLLCSSSQEHRYHRHRPIEWAA [Q5N]: the abundance fitness was -0.337 ± 0.16. In the case of SSEEYMCGTHRETKKIFCEVDRSLLCLLCSSSQEHRYHRHRPIEWAA [Q5Y], the abundance fitness was -0.002 ± 0.18.

In the case of SSEESMCGTHRETKKIFCEVDRSLLCLLCSSSQEHRYHRHRPIEWAA [Q5S], the abundance fitness is 0.114 ± 0.098.

With SSEEWMCGTHRETKKIFCEVDRSLLCLLCSSSQEHRYHRHRPIEWAA [Q5W], the abundance fitness was -0.465 ± 0.12. Turning to SSEETMCGTHRETKKIFCEVDRSLLCLLCSSSQEHRYHRHRPIEWAA [Q5T], the abundance fitness is -0.345 ± 0.12. In the case of SSEEPMCGTHRETKKIFCEVDRSLLCLLCSSSQEHRYHRHRPIEWAA [Q5P], the abundance fitness is -0.251 ± 0.11.

As for SSEERMCGTHRETKKIFCEVDRSLLCLLCSSSQEHRYHRHRPIEWAA [Q5R], the abundance fitness is -0.097 ± 0.082.

Regarding SSEEQMFGTHRETKKIFCEVDRSLLCLLCSSSQEHRYHRHRPIEWAA [C7F], the abundance fitness was -0.957 ± 0.12. The same measure for SSEEQMIGTHRETKKIFCEVDRSLLCLLCSSSQEHRYHRHRPIEWAA [C7I]: -0.797 ± 0.11; for SSEEQMPGTHRETKKIFCEVDRSLLCLLCSSSQEHRYHRHRPIEWAA [C7P]: -0.598 ± 0.1. Regarding SSEEQMHGTHRETKKIFCEVDRSLLCLLCSSSQEHRYHRHRPIEWAA [C7H], the abundance fitness was -0.429 ± 0.11. SSEEQMWGTHRETKKIFCEVDRSLLCLLCSSSQEHRYHRHRPIEWAA [C7W]: the abundance fitness is -0.499 ± 0.27. SSEEQMRGTHRETKKIFCEVDRSLLCLLCSSSQEHRYHRHRPIEWAA [C7R]: the abundance fitness is -0.513 ± 0.12.

Regarding SSEEQMVGTHRETKKIFCEVDRSLLCLLCSSSQEHRYHRHRPIEWAA [C7V], the abundance fitness is -0.722 ± 0.15. On to SSEEQMAGTHRETKKIFCEVDRSLLCLLCSSSQEHRYHRHRPIEWAA [C7A], for which the abundance fitness is -0.935 ± 0.17. Take SSEEQMQGTHRETKKIFCEVDRSLLCLLCSSSQEHRYHRHRPIEWAA [C7Q]: the abundance fitness was -0.832 ± 0.18.

Regarding SSEEQMDGTHRETKKIFCEVDRSLLCLLCSSSQEHRYHRHRPIEWAA [C7D], the abundance fitness was -0.589 ± 0.17. In the case of SSEEQMSGTHRETKKIFCEVDRSLLCLLCSSSQEHRYHRHRPIEWAA [C7S], the abundance fitness is -0.636 ± 0.091. With SSEEQMTGTHRETKKIFCEVDRSLLCLLCSSSQEHRYHRHRPIEWAA [C7T], the abundance fitness is -0.861 ± 0.11. Consider SSEEQMKGTHRETKKIFCEVDRSLLCLLCSSSQEHRYHRHRPIEWAA [C7K], for which the abundance fitness was -1.08 ± 0.27. Turning to SSEEQMYGTHRETKKIFCEVDRSLLCLLCSSSQEHRYHRHRPIEWAA [C7Y], the abundance fitness is -0.788 ± 0.11. As for SSEEQMMGTHRETKKIFCEVDRSLLCLLCSSSQEHRYHRHRPIEWAA [C7M], the abundance fitness was -0.718 ± 0.27. For the variant SSEEQMCGTHNETKKIFCEVDRSLLCLLCSSSQEHRYHRHRPIEWAA [R11N], the abundance fitness was -0.049 ± 0.17. Then SSEEQMCGTHVETKKIFCEVDRSLLCLLCSSSQEHRYHRHRPIEWAA [R11V], with -0.502 ± 0.11; and SSEEQMCGTHHETKKIFCEVDRSLLCLLCSSSQEHRYHRHRPIEWAA [R11H], with 0.154 ± 0.17; and SSEEQMCGTHFETKKIFCEVDRSLLCLLCSSSQEHRYHRHRPIEWAA [R11F], with -0.613 ± 0.29. Regarding SSEEQMCGTHPETKKIFCEVDRSLLCLLCSSSQEHRYHRHRPIEWAA [R11P], the abundance fitness was -0.441 ± 0.13.

Turning to SSEEQMCGTHLETKKIFCEVDRSLLCLLCSSSQEHRYHRHRPIEWAA [R11L], the abundance fitness was -0.418 ± 0.11. Regarding SSEEQMCGTHQETKKIFCEVDRSLLCLLCSSSQEHRYHRHRPIEWAA [R11Q], the abundance fitness is -0.246 ± 0.14. On to SSEEQMCGTHAETKKIFCEVDRSLLCLLCSSSQEHRYHRHRPIEWAA [R11A], for which the abundance fitness was -0.134 ± 0.097. In the case of SSEEQMCGTHSETKKIFCEVDRSLLCLLCSSSQEHRYHRHRPIEWAA [R11S], the abundance fitness is -0.185 ± 0.097. As to SSEEQMCGTHKETKKIFCEVDRSLLCLLCSSSQEHRYHRHRPIEWAA [R11K], the abundance fitness was 0.073 ± 0.12.

As to SSEEQMCGTHEETKKIFCEVDRSLLCLLCSSSQEHRYHRHRPIEWAA [R11E], the abundance fitness was -0.683 ± 0.14.

As for SSEEQMCGTHGETKKIFCEVDRSLLCLLCSSSQEHRYHRHRPIEWAA [R11G], the abundance fitness is -0.069 ± 0.08. As to SSEEQMCGTHTETKKIFCEVDRSLLCLLCSSSQEHRYHRHRPIEWAA [R11T], the abundance fitness is -0.135 ± 0.12. Turning to SSEEQMCGTHIETKKIFCEVDRSLLCLLCSSSQEHRYHRHRPIEWAA [R11I], the abundance fitness is -0.398 ± 0.23. Take SSEEQMCGTHCETKKIFCEVDRSLLCLLCSSSQEHRYHRHRPIEWAA [R11C]: the abundance fitness was -0.008 ± 0.12.

With SSEEQMCGTHMETKKIFCEVDRSLLCLLCSSSQEHRYHRHRPIEWAA [R11M], the abundance fitness was -0.48 ± 0.15. Consider SSEEQMCGTRRETKKIFCEVDRSLLCLLCSSSQEHRYHRHRPIEWAA [H10R], for which the abundance fitness is -0.728 ± 0.095. The same measure for SSEEQMCGTGRETKKIFCEVDRSLLCLLCSSSQEHRYHRHRPIEWAA [H10G]: -0.671 ± 0.084; for SSEEQMCGTVRETKKIFCEVDRSLLCLLCSSSQEHRYHRHRPIEWAA [H10V]: -0.788 ± 0.1. As for SSEEQMCGTYRETKKIFCEVDRSLLCLLCSSSQEHRYHRHRPIEWAA [H10Y], the abundance fitness was -0.855 ± 0.16.

Regarding SSEEQMCGTCRETKKIFCEVDRSLLCLLCSSSQEHRYHRHRPIEWAA [H10C], the abundance fitness is -0.523 ± 0.12. Regarding SSEEQMCGTLRETKKIFCEVDRSLLCLLCSSSQEHRYHRHRPIEWAA [H10L], the abundance fitness is -0.256 ± 0.1.

Regarding SSEEQMCGTQRETKKIFCEVDRSLLCLLCSSSQEHRYHRHRPIEWAA [H10Q], the abundance fitness was -0.757 ± 0.19.

For SSEEQMCGTTRETKKIFCEVDRSLLCLLCSSSQEHRYHRHRPIEWAA [H10T], the abundance fitness was -0.772 ± 0.16. In the case of SSEEQMCGTNRETKKIFCEVDRSLLCLLCSSSQEHRYHRHRPIEWAA [H10N], the abundance fitness was -0.836 ± 0.26. The same measure for SSEEQMCGTWRETKKIFCEVDRSLLCLLCSSSQEHRYHRHRPIEWAA [H10W]: -0.976 ± 0.14; for SSEEQMCGTIRETKKIFCEVDRSLLCLLCSSSQEHRYHRHRPIEWAA [H10I]: -1 ± 0.26; for SSEEQMCGTKRETKKIFCEVDRSLLCLLCSSSQEHRYHRHRPIEWAA [H10K]: -0.714 ± 0.22. Then SSEEQMCGTPRETKKIFCEVDRSLLCLLCSSSQEHRYHRHRPIEWAA [H10P], with -0.549 ± 0.13; and SSEEQMCGTDRETKKIFCEVDRSLLCLLCSSSQEHRYHRHRPIEWAA [H10D], with -0.303 ± 0.15; and SSEEQMCGTFRETKKIFCEVDRSLLCLLCSSSQEHRYHRHRPIEWAA [H10F], with -1.07 ± 0.19. As to SSEEQMCGTMRETKKIFCEVDRSLLCLLCSSSQEHRYHRHRPIEWAA [H10M], the abundance fitness is -1.06 ± 0.18. Turning to SSEEQMCGTSRETKKIFCEVDRSLLCLLCSSSQEHRYHRHRPIEWAA [H10S], the abundance fitness was -0.613 ± 0.099.
